Stoichiometry N data for two molecules are collected here from article PMC3273594.

The target in experiment [1] is TOAC labeled wild-type PLB. In words: SDS-PAGE.
In experiment [2] the target is T1, Wild-type Phospholamban, P61014.
T1 chain: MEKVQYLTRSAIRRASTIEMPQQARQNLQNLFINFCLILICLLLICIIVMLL
In words: SDS-PAGE. Particulars: remark: other sources report otherwise.

The molecule TOAC labeled wild-type PLB showed a stoichiometry N in experiment [1] of 5.

B1: Wild-type Phospholamban, P61014 1-52 (natural protein)
chain: MEKVQYLTRSAIRRASTIEMPQQARQNLQNLFINFCLILICLLLICIIVMLL
Consider B1, for which the stoichiometry N in experiment [2] amounted to 5.

What is called stoichiometry N is the number of molecules, sites or subunits per partner or assembly.
